Experimental data taken from patent US20230143604A1, “QW DOSING OF GIP RECEPTOR AGONIST PEPTIDE COMPOUNDS AND USES THEREOF” (TAKEDA PHARMACEUTICAL COMPANY LIMITED, priority 2020, published 2023).
Starred links: 1 amine or outer side, 2 acyl side, 3 side chain; linkers in the order of their positions; H or OH if unused. Non-standard residues stand in square brackets, D forms with d. Groups on a side chain read outwards from the residue. No end group written: not given here. *: point of attachment. C18 diacid = O=C(O)CCCCCCCCCCCCCCCCC(=O)*; C17 diacid = O=C(O)CCCCCCCCCCCCCCCC(=O)*; γGlu = O=C(O)[C@H](CCC(=O)[*:2])N[*:1]; NMeY = CN[C@@H](Cc1ccc(O)cc1)C(=O)O; AEEA = NCCOCCOCC(=O)O; Aib = CC(C)(N)C(=O)O

T1: full-length human GIPR with an N-terminal FLAG tag (human, UniProt P48546 22-466)
T1 sequence (looked up): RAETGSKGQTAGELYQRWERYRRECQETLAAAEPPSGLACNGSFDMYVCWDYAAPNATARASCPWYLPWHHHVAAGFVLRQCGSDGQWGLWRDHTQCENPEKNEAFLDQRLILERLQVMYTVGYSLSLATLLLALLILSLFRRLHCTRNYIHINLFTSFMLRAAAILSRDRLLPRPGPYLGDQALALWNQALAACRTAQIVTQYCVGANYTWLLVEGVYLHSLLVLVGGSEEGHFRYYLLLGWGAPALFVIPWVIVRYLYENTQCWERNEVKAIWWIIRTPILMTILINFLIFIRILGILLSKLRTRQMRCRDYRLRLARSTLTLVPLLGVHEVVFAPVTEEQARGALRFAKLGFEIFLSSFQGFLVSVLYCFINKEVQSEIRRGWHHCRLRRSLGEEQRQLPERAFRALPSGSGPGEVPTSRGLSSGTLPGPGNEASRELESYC


Key:
[1] = biological target: T1, full-length human GIPR with an …; assay: cell-based or functional assay
[2] = biological target: full-length human GLP-1R with an N-terminal FLAG tag (human, UniProt P43220 24-463); assay: cell-based or functional assay

Binder	Human GIPR cAMP EC50, HEK293T [1] [nM]	Human GLP1R cAMP EC50, HEK293T [2] [nM]
H-Y[Aib]EGTFISDYSIALDR[Aib]AQ[Aib]K([AEEA-AEEA-γGlu-γGlu-C17 diacid])FVNWLLAQRG-OH (SMILES CC[C@H](C)[C@H](NC(=O)[C@H](CO)NC(=O)[C@H](Cc1ccc(O)cc1)NC(=O)[C@H](CC(=O)O)NC(=O)[C@H](CO)NC(=O)[C@@H](NC(=O)[C@H](Cc1ccccc1)NC(=O)[C@@H](NC(=O)CNC(=O)[C@H](CCC(=O)O)NC(=O)C(C)(C)NC(=O)[C@@H](N)Cc1ccc(O)cc1)[C@@H](C)O)[C@@H](C)CC)C(=O)N[C@@H](C)C(=O)N[C@@H](CC(C)C)C(=O)N[C@@H](CC(=O)O)C(=O)N[C@@H](CCCNC(=N)N)C(=O)NC(C)(C)C(=O)N[C@@H](C)C(=O)N[C@@H](CCC(N)=O)C(=O)NC(C)(C)C(=O)N[C@@H](CCCCNC(=O)COCCOCCNC(=O)COCCOCCNC(=O)CC[C@H](NC(=O)CC[C@H](NC(=O)CCCCCCCCCCCCCCCC(=O)O)C(=O)O)C(=O)O)C(=O)N[C@@H](Cc1ccccc1)C(=O)N[C@H](C(=O)N[C@@H](CC(N)=O)C(=O)N[C@@H](Cc1c[nH]c2ccccc12)C(=O)N[C@@H](CC(C)C)C(=O)N[C@@H](CC(C)C)C(=O)N[C@@H](C)C(=O)N[C@@H](CCC(N)=O)C(=O)N[C@@H](CCCNC(=N)N)C(=O)NCC(=O)O)C(C)C) [Compound No. 140]	0.0007	3.98
Y[Aib]EGTFISDYSI[Aib]LDR[Aib]AQ[Aib]K([AEEA-AEEA-γGlu-γGlu-C18 diacid])FVNWLLAQRG-OH (not fully specified (N-terminus)) [Compound No. 141]	0.0005	5.25
YXEGTFISDYSIAXDRXAQXNFVNWLLAQSPSSGAPPPS (N-terminus H; Aib at 2,17,20; Lys(G5-C18 diacid) at 14; C-terminal OH) [Compound No. 138]	0.0008	2.04
[NMeY][Aib]EGTFISDYSIALDR[Aib]K([Gly-Gly-Pro-Ala-Pro-Ala-Pro-γGlu-C18 diacid])Q[Aib]DFVNWLLAQSPG-OH (N-terminus assumed; SMILES CC[C@H](C)[C@H](NC(=O)[C@H](CO)NC(=O)[C@H](Cc1ccc(O)cc1)NC(=O)[C@H](CC(=O)O)NC(=O)[C@H](CO)NC(=O)[C@@H](NC(=O)[C@H](Cc1ccccc1)NC(=O)[C@@H](NC(=O)CNC(=O)[C@H](CCC(=O)O)NC(=O)C(C)(C)NC(=O)[C@H](Cc1ccc(O)cc1)NC)[C@@H](C)O)[C@@H](C)CC)C(=O)N[C@@H](C)C(=O)N[C@@H](CC(C)C)C(=O)N[C@@H](CC(=O)O)C(=O)N[C@@H](CCCNC(=N)N)C(=O)NC(C)(C)C(=O)N[C@@H](CCCCNC(=O)CNC(=O)CNC(=O)[C@@H]1CCCN1C(=O)[C@H](C)NC(=O)[C@@H]1CCCN1C(=O)[C@H](C)NC(=O)[C@@H]1CCCN1C(=O)CC[C@H](NC(=O)CCCCCCCCCCCCCCCCC(=O)O)C(=O)O)C(=O)N[C@@H](CCC(N)=O)C(=O)NC(C)(C)C(=O)N[C@@H](CC(=O)O)C(=O)N[C@@H](Cc1ccccc1)C(=O)N[C@H](C(=O)N[C@@H](CC(N)=O)C(=O)N[C@@H](Cc1c[nH]c2ccccc12)C(=O)N[C@@H](CC(C)C)C(=O)N[C@@H](CC(C)C)C(=O)N[C@@H](C)C(=O)N[C@@H](CCC(N)=O)C(=O)N[C@@H](CO)C(=O)N1CCC[C@H]1C(=O)NCC(=O)O)C(C)C) [Compound No. 136]	0.0007	63.1
Y[Aib]EGTFISDYSIALDKIAQQK([AEEA-AEEA-γGlu-γGlu-C17 diacid])FVEWLLAQRG-OH [Compound No. 142]	0.0004	158
Y[Aib]EGTFISDYSIALDKIAQRK([AEEA-AEEA-γGlu-γGlu-C17 diacid])FVEWLLAQRG-OH [Compound No. 143]	0.0004	4.9
YXEGTFISDYSIXXDRXAQXDFVEWLLAQRG (N-terminus H; Aib at 2,13,17,20; Lys(G5-C18 diacid) at 14; C-terminal OH) [Compound No. 139]	0.0015	8.91
